Source: publication PMC7835222, “PRMT3 interacts with ALDH1A1 and regulates gene-expression by inhibiting retinoic acid signaling” (Communications Biology, 2021)

Target: T1, GST-tagged PRMT3 full-length protein (pGEX-PR-FL) (human, UniProt O60678-1 1-531)
T1 construct: Protein arginine methyltransferase 3 (PRMT3), human, full length; pGEX-6P2 vector; the legends mark a degraded GST-PRMT3 band beside the full-length one; also called GST-PRMT3; GST-PRMT3-FL
Assay: pull-down; 15 µg GST-PRMT3 (wild type or mutant) on Glutathione Sepharose, 15 µg His-tagged AL-FL in solution, with or without 200 µM SAM or SAH; 20 mM HEPES pH 7.5, 150 mM KCl, 0.2 mM DTT, 1 mM EDTA, 10% glycerol; 4 °C, 10 h; blot with His antibody
Conditions: both partners purified

T1 sequence (O60678 whole entry): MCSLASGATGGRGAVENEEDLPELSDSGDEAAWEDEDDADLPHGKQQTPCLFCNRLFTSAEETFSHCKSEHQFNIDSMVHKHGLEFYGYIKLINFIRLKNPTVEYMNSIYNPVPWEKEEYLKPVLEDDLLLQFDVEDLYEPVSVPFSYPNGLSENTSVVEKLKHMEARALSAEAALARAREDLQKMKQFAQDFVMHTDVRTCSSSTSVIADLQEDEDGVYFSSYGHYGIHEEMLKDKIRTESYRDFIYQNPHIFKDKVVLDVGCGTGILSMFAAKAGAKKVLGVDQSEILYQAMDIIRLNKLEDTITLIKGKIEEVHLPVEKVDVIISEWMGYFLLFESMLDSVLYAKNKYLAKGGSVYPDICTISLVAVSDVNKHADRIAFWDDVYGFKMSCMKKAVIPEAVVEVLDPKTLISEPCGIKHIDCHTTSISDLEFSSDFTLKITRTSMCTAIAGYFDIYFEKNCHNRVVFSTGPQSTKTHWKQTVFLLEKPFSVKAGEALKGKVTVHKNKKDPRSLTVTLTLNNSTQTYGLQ

binding result: binds
B1: His-tagged ALDH1A1 full length (pET28a-AL-FL) (enzyme, human, UniProt P00352 1-501, looked up)
chain: MSSSGTPDLPVLLTDLKIQYTKIFINNEWHDSVSGKKFPVFNPATEEELCQVEEGDKEDVDKAVKAARQAFQIGSPWRTMDASERGRLLYKLADLIERDRLLLATMESMNGGKLYSNAYLNDLAGCIKTLRYCAGWADKIQGRTIPIDGNFFTYTRHEPIGVCGQIIPWNFPLVMLIWKIGPALSCGNTVVVKPAEQTPLTALHVASLIKEAGFPPGVVNIVPGYGPTAGAAISSHMDIDKVAFTGSTEVGKLIKEAAGKSNLKRVTLELGGKSPCIVLADADLDNAVEFAHHGVFYHQGQCCIAASRIFVEESIYDEFVRRSVERAKKYILGNPLTPGVTQGPQIDKEQYDKILDLIESGKKEGAKLECGGGPWGNKGYFVQPTVFSNVTDEMRIAKEEIFGPVQQIMKFKSLDDVIKRANNTFYGLSAGVFTKDIDKAITISSALQAGTVWVNCYGVVSAQCPFGGFKMSGNGRELGEYGFHEYTEVKTVTVKISQKNS
notes: Retinal dehydrogenase 1 (ALDH1A1), human, full length; pET28a vector; also called His-tagged AL-FL
